Test results from patent publication US20020164667A1 (VEGENICS, published 2002).
Ends that are not written are not given here.

T1: human VEGFR3-Fc fusion protein (human, UniProt P35916 25-329, limits assumed)
T1 construct: domain: first three Ig homology domain of the extracellular portion; Coated on microtiter wells at 1 ug/ml; not shown: Fc tail of human IgG1, cloned in frame after the VEGFR3 Ig homology domains
T1 sequence (looked up): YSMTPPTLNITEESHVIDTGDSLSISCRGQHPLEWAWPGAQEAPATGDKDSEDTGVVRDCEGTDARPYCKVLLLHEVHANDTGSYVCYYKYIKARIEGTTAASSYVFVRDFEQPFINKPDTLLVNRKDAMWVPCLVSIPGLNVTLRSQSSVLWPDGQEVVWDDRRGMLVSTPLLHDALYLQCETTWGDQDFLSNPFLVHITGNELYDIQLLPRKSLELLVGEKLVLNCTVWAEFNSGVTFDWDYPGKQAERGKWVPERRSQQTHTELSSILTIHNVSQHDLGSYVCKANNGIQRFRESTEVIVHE

B1: CYGFLWGMC (SEQ ID NO: 60) (peptide)
peptide: CYGFLWGMC
modifications: not fully specified (bridges); cysteine pairing not given here; also: displayed on fUSE5 phage as coat protein fusion, flanking residues not given here
notes: also called CX7C library clone

What follows are binders tested against T1, human VEGFR3-Fc fusion protein (assay: phage attachment assay, VEGFR3-Fc-coated versus BSA-blocked microtiter wells).
Description: VEGFR3-Fc fusionprotein (1 μg/ml) was coated on microtiter wells (96-well plate) overnight at 4° C. Wells were then saturated with 5% BSA. In the first panning, the libraries were incubated overnight at 4° C. in 50 mM TBS buffer (Tris-HCl/0.1M NaCl, pH 7.5) containing 1% BSA. After extensive washing, the bounded phages were eluted with a low pH buffer (0.1M glycine-HCl, 0.1%BSA, 0.05% phenol red, pH2.2)(Koivunen et al., Methods Mol. Biol. 129:3-17,1999; Koivunenet al, Biotechnol., 18(8):768-74,1999; Smoth et al., Methods Enzymol., 217:228-357, 1993). In subsequent pannings, the amplified phages using the K91kan E. coli.(Koivunen et al., Methods Mol. Biol. 129:3-17, 1999) were allowed to bind for 1 h at room temperature. Randomly selected clones from the fourth round of panning were amplified overnight and sequenced using ABIPRISM 310 Genetic Analyzer. The binding of each clone to VEGFR-3 was verified by an attachment assay, in which the cloned phage were incubated for 60 minutes in VEGFR3-Fc-coated or BSA-blocked microtiter wells. Thewells were washed ten times with TBS containing 0.5% Tween-20. The bound phages were titered by calculating the number of colonies.

Row | binding result | Binder
1 | binds | WFSASLRFR (also called X9 library clone) [WFSASLRFR (SEQ ID NO: 43)]
2 | binds | FVGWTKVLG (also called X9 library clone) [FVGWTKVLG (SEQ ID NO: 39)]
3 | binds | B1
4 | binds | CVWDHGVC [CVWDHGVC (SEQ ID NO: 65)]
5 | binds | CWQLGRNWIC (also called CX8C library clone) [CWQLGRNWIC (SEQ ID NO: 55)]
6 | binds | CRKVWDIRC (also called CX7C library clone) [CRKVWDIRC (SEQ ID NO: 64)]
7 | binds | KVGWSSPDW (also called X9 library clone) [KVGWSSPDW (SEQ ID NO: 38)]
8 | binds | CMDPWGGWC (also called CX7C library clone) [CMDPWGGWC (SEQ ID NO: 63)]
9 | binds | CRALDSALAC (also called CX8C library clone) [CRALDSALAC (SEQ ID NO: 58)]
10 | binds | RWRGNAYPG (also called X9 library clone) [RWRGNAYPG (SEQ ID NO: 41)]
11 | binds | CSRWRILGC (also called CX7C library clone) [CSRWRILGC (SEQ ID NO: 61)]
12 | binds | CYGFEAAWC (also called CX7C library clone) [CYGFEAAWC (SEQ ID NO: 59)]
13 | binds | CGQMCTVWCSSGC (also called CX3CX3CX3C library clone) [CGQMCTVWCSSGC (SEQ ID NO: 66)]
14 | binds | YSSSMRWRH (also called X9 library clone) [YSSSMRWRH (SEQ ID NO: 40)]
15 | binds | CVEVQITQEC (also called CX8C library clone) [CVEVQITQEC (SEQ ID NO: 56)]
16 | binds | SAVFRGRWL (also called X9 library clone) [SAVFRGRWL (SEQ ID NO: 42)]
17 | binds | CAGKASSLWC (also called CX8C library clone) [CAGKASSLWC (SEQ ID NO: 57)]
18 | binds | CHKWQKRQC (also called CX7C library clone) [CHKWQKRQC (SEQ ID NO: 62)]
19 | binds | SCYWRDTWF (also called X9 library clone) [SCYWRDTWF (SEQ ID NO: 37)]
20 | binds | SGYWWDTWF (also called X9 library clone) [SGYWWDTWF (SEQ ID NO: 36)]
